In US11999794B2, “Human mesothelin chimeric antigen receptors and uses thereof” (Novartis AG, priority 2013, dated 2024):
Numbering of substitutions follows the chain as printed.

B1: M5: human anti-mesothelin scFv SEQ ID NO: 43; full CAR SEQ ID NO: 67 (protein)
scFv: QVQLVQSGAEVEKPGASVKVSCKASGYTFTDYYMHWVRQAPGQGLEWMGWINPNSGGTNYAQKFQGRVTMTRDTSISTAYMELSRLRSDDTAVYYCASGWDFDYWGQGTLVTVSSGGGGSGGGGSGGGGSGGGGSDIVMTQSPSSLSASVGDRVTITCRASQSIRYYLSWYQQKPGKAPKLLIYTASILQNGVPSRFSGSGSGTDFTLTISSLQPEDFATYYCLQTYTTPDFGPGTKVEIK
B2: M11: human anti-mesothelin scFv SEQ ID NO: 49; full CAR SEQ ID NO: 73 (protein)
scFv: B1 scFv with V5Q, E12K, D31G, K63N, S84R, V138R

Assays:
[1] = biological target: T1, biotinylated mesothelin ECD (Homo sapiens, UniProt Q13421); test: Surface plasmon resonance (Biacore T200) binding affinity of purified scFvs; settings: for Kd: 1:1 Binding or Steady State Affinity fit
T1 construct: made in house; host or cells: HEK293F (transient)
T1 sequence (Q13421 with tags, fused parts or gaps): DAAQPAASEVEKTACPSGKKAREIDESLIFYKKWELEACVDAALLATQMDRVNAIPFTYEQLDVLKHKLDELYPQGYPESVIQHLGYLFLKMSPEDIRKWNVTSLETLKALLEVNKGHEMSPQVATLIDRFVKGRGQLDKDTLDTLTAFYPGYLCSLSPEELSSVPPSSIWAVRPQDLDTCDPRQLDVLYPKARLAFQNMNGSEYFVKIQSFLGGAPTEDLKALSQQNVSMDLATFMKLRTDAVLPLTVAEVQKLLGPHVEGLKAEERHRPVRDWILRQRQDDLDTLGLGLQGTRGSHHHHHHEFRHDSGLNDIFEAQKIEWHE
Method: Binding affinity of purified scFvs was measured on a Biacore T200 system. Briefly, recombinant human biotinylated mesothelin ECD was immobilized on a streptavidin (SA) sensor chip surface at a density of 150 RU. Purified scFv was injected over the chip under constant flow rate at three-fold serial dilutions. Association and dissociation rates of the protein complex were monitored for 270 seconds and 400 seconds, respectively. Double referencing was performed against a blank immobilized flow cell and a buffer blank. Affinity was determined with a Langmuir 1:1 binding model when possible, for those scFVs where accurate fitting was not possible due to fast on and off rates, the steady state model was used.

[2] = tested on: Ovcar8, SW1990 and Panc0203; test: IFNγ production of CART-MSLN (CBA-Flex), endogenous MSLN; type: cell-based, human; settings: for IFNγ levels compared with the other CARTs: cancer cells endogenously expressing MSLN
Method: Plots from 20 hour flow-based killing assays using titrating Effector to Target (E:T) ratios with effector CART-MSLN cells targeting CSFE labeled K562 (FIG. 3A. non-expressing MSLN controls) and K562-Meso (FIG. 3B, K562 cells transduced to express MSLN). […] For measuring cytokine production of human scFv bearing CART-MSLN, cells were thawed and allowed to recover overnight. In addition to the humanized CART-MSLN, the SS1 CART-MSLN (murine scFv) was used for comparative purposes. CD19-BBz CART was used as a non-targeting control for background CART cell effect. SS1 CART-MSLN was used in all assays to compare assay variation. The T cells were directed towards K562, a chronic myelogenous leukemia cell line (both MSLN+ and MSLN), the MLSN-expressing ovarian cancer cell line Ovcar8, and the pancreatic cancer lines SW1990 and Panc0203. When analyzing MSLN expression by flow cytometry, we detected 10-fold lower expression of MSLN on Ovcar8 compared to MSLN+K562 cells; SW1990 expressed 10-fold less than Ovcar8. […] In addition, PMA/Ionomycin was used to evaluate the potential of T cells to respond to the endogenous immunological signals. The assay tests only an effector:target ratio of 1:1. The assay is run for 24 hours after mixing of the cells, when the media is removed for cytokine analysis using the IFN-γ CBA-Flex kit for human cytokine detection.
Background levels of cytokine produced from CART-MSLN cells after exposure to the control K562 cells not expressing MSLN were analyzed. […] Differences were dealt with by normalizing the specific IFNγ release over the maximum release (PMA/Ionomycin).

Ovcar3 = test: Luciferase-based killing assay; type: cell-based, human; settings: for killing of target tumor cells: E:T 10:1 to 1:1, 20 hours, FIG. 16A; for specific killing within the panel of human meso CARs: FIGS. 17A and 17B
Method: The ability for the CART-MSLN to target and kill tumor cells was also assessed in vitro. A luciferase-based assay was used, with tumor cell lines expressing luciferase reporters. Target cells (tumor cells) were plated at 20,000 targets/well. CART-MSLN were added at varying effector:target ratios, from 10:1, 5:1, 2.5:1, and 1:1. The cells were cultured for 20 hours, and the luminescence of each well was detected to determine the percentage of target cells killed. Luciferase-expressing Ovcar3 (ovarian cancer) and U87 mg (glioblastoma) cell lines were used as target cells.

Ovcar8 = Ovcar8 xenograft model (Example 8); type: in vivo, NSG mice; settings: 2×10^6 CART cells i.v. at day 14
Method: Anti-tumor activity of CART-MSLN was assessed in vivo in an Ovcar8 xenograft model. 10×10^6 Ovcar8 cells were implanted subcutaneously on day 0 in NSG mice. At day 14, 2×10^6 CART cells (CARTs expressing M5, M11, M17, M21, SS1, and CD19, or untransduced cells; 10×10^6 total T cells) in a 100 μl dose was administered intravenously. Mice and tumors were monitored for about 40 days after tumor cell implantation.
A second in vivo xenograft experiment was performed to assess the anti-tumor activity of a second set of CART-MSLN cells. 10×10^6 OVCAR8-mcherry cells were injected into NSG mice. Once tumors were 150-250 mm^2, mice were randomized into treatment groups. CARTs expressing M12, M14, M16, M23, ss1, CD19, or untreated cells were injected at a dose of 10×10^6 T cells in 100 μl. About 40% of T cells were expressing CAR, and therefore at the administered dosage, about 4×10^6 CART cells were delivered to each animal.

Molecule | ka ([1]; 1:1 Binding fit) [M⁻¹ s⁻¹] | kd ([1]; 1:1 Binding fit) [s⁻¹] | Kd [1] [nM] | IFNγ response to cancer cells endogenously expressing MSLN ([2]; E:T 1:1, 24 hours) | IFNγ levels compared with the other CARTs [2] | killing of target tumor cells (Ovcar3) | specific killing within the panel of human meso CARs (Ovcar3) | anti-tumor activity, first xenograft experiment (Ovcar8)
B1 | 42000 | 0.00113 | 26.9 | responded | superior IFNγ levels | performed similarly well in killing target tumor cells | highest specific killing of Ovcar3 cells | strong anti-tumor activity
B2 |  |  | 64.7 |  | superior IFNγ levels | performed similarly well in killing target tumor cells | highest specific killing of Ovcar3 cells | strong anti-tumor activity
